From US12415992B2, “Dioxygenase mutants and use thereof in synthesizing (2S,3R)-3-hydroxypipecolic acid” (Jiangnan University, priority 2023, dated 2025) come the findings set out here.

Data set [1] deals with T1, Streptomyces sp. strain TH1 L-proline-3-hydroxylase (cis-P3H, SEQ ID NO. 1) mutant R97M (Streptomyces sp., UniProt P96010, R97M).
T1 sequence (P96010 1-290 R97M): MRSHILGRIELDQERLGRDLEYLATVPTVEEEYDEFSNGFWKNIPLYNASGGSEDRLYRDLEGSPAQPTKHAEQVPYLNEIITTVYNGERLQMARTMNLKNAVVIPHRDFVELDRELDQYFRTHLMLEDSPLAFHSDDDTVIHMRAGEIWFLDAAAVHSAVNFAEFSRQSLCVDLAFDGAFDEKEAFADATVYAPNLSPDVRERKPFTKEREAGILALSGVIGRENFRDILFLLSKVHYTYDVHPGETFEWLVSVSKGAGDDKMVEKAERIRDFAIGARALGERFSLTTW
Briefly: Kinetic parameters of L-proline-3-hydroxylase mutant R97M (Michaelis-Menten fit). The data set is classed as biochemical. How it is done: […]
(§1) The reaction was terminated by boiling, and the sample after the termination of reaction was analyzed by high-performance liquid chromatography (HPLC). […]
(§2) Kinetic parameters (Km and Vmax) were determined using a reaction mixture with a final volume of 250 μL. […]

For data set [2], the target named is T2, Streptomyces sp. strain TH1 L-proline-3-hydroxylase (cis-P3H), wild type (WT), SEQ ID NO. 1 (Streptomyces sp., UniProt P96010).
T2 sequence (P96010 1-290): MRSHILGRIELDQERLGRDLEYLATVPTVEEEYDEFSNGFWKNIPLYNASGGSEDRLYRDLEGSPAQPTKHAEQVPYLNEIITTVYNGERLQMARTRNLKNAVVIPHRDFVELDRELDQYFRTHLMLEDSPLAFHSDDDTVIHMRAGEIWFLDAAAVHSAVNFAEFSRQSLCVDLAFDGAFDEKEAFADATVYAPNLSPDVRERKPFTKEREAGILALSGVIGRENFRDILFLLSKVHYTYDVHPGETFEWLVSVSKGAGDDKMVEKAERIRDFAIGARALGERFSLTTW
Briefly: Kinetic parameters of wild-type L-proline-3-hydroxylase (Michaelis-Menten fit). To be noted: WT pure enzyme; L-pipecolic acid 0.30 to 25 mM, 2-OG 0.30 to 40 mM; pH 6.5, 17° C.; three measurements. It is filed as biochemical. How it is done: […]
as §1, §2

Substrate in data set [3]: O=C(O)CCC(=O)C(=O)O
Kind of data set: purified protein, by the assay type. To be noted: L-pipecolic acid 0.30 to 25 mM, 2-OG 0.30 to 40 mM, pH 6.5, 17° C., three measurements.

Substrate in data set [4]: O=C(O)[C@@H]1CCCCN1
Kind of data set: Kinetic parameters of L-proline-3-hydroxylase mutant R97M (Michaelis-Menten fit). It is filed as biochemical, Streptomyces sp. strain TH1. To be noted: other: R97M pure enzyme, L-pipecolic acid 0.30 to 25 mM, 2-OG 0.30 to 40 mM, pH 6.5, 17° C., three measurements.
From the text: (§3) The present disclosure further provides a method for constructing the L-proline-3-hydroxylase mutant above, the method includes the following steps: • (1) according to sequence information of the L-proline-3-hydroxylase from Streptomyces sp. strain TH1 disclosed in the NCBI database, performing codon optimization based on codon preference rules of Escherichia coli to obtain an optimized gene of L-proline-3-hydroxylase; connecting the optimized gene of L-proline-3-hydroxylase into an expression vector pET28a to construct an L-proline-3-hydroxylase expression vector; • (2) using genes (involved in site-directed saturation mutagenesis) synthesized by GENCEFE Biotech to prepare an expression vector containing the L-proline-3-hydroxylase mutant; • (3) transforming the above vectors into BL21 engineering bacteria by chemical transformation to express each enzyme protein; culturing the strain in a test tube at 37° C. shaker overnight, transferring the same to an LB liquid culture medium containing 50 mg·L^−1 kanamycin at a 2% inoculation rate, culturing at 37° C. for 2-2.5 hours, and then adding IPTG with a concentration of 0.10 mM to adjust a temperature to 17° C. and culturing for 16 hours; • (4) centrifuging at 8000 r·min^−1 for 5 minutes and collecting bacterial pellets, disrupting cells through an ultrasonic disruption method, centrifuging in a refrigerated centrifuge at 12000 r·min^−1 for 30 minutes to collect supernatant, directly using the supernatant for crude enzyme reaction to explore changes in molar yield under crude enzyme conditions; or purifying the supernatant with a nickel column, and enzymatic properties such as enzyme activity and kinetic parameters of the pure L-proline-3-hydroxylase can be determined. Specifically, the enzyme activity is detected using an Fmoc-Cl pre-column derivatization method, and analyzed by high-performance liquid chromatography (HPLC). The kinetic parameters (Km and Vmax) are measured in a standard enzyme activity assay system, with three separate measurements. Data are fitted to a Michaelis-Menten model using GraphPad Prism, and a protein concentration is kept at 0.50 mg·mL-1 during the measurements.
(§4) Specifically, the reaction under crude enzyme conditions was performed for 12 hours, the reaction under pure enzyme conditions was performed for 15 minutes, and a final protein concentration for the reaction under pure enzyme conditions was 0.5 mg·mL^−1.
as §1, §2

Substrate in data set [5]: O=C(O)[C@@H]1CCCCN1
Kind of data set: Kinetic parameters of wild-type L-proline-3-hydroxylase (Michaelis-Menten fit). The data set is classed as biochemical, Streptomyces sp. strain TH1. To be noted: other: WT pure enzyme, L-pipecolic acid 0.30 to 25 mM, 2-OG 0.30 to 40 mM, pH 6.5, 17° C., three measurements.
From the text: as §3, §4, §1, §2

The kcat/Km is the second-order rate constant that governs catalysis at low substrate concentration. Consider `O=C(O)[C@@H]1CCCCN1` [L-Pip, L-pipecolic acid], for which the kcat/Km in data set [1] (R97M pure enzyme, L-pipecolic acid 0.30 to 25 mM, 2-OG 0.30 to 40 mM, pH 6.5, 17° C., three measurements) amounted to 34.8 M⁻¹ s⁻¹; in data set [2], 19 M⁻¹ s⁻¹. In data set [1] (ratio R97M / WT), the “catalytic efficiency kcat/Km of R97M relative to WT” value stood at 1.83 times.

B1: Streptomyces sp. strain TH1 L-proline-3-hydroxylase (cis-P3H, SEQ ID NO. 1) mutant R97M (Streptomyces sp.; R97M) (protein)
chain: MRSHILGRIELDQERLGRDLEYLATVPTVEEEYDEFSNGFWKNIPLYNASGGSEDRLYRDLEGSPAQPTKHAEQVPYLNEIITTVYNGERLQMARTMNLKNAVVIPHRDFVELDRELDQYFRTHLMLEDSPLAFHSDDDTVIHMRAGEIWFLDAAAVHSAVNFAEFSRQSLCVDLAFDGAFDEKEAFADATVYAPNLSPDVRERKPFTKEREAGILALSGVIGRENFRDILFLLSKVHYTYDVHPGETFEWLVSVSKGAGDDKMVEKAERIRDFAIGARALGERFSLTTW
A word on the Km: it is the concentration of substrate that gives half-maximal velocity. For orientation: Vmax means the rate approached at saturating substrate. Usually kcat stands for the maximal rate divided by the concentration of active sites. B1: in data set [3] (other: R97M pure enzyme), the Km turned out to be 1.46 ± 0.01 mM, the Vmax stood at 139 µM/min, the kcat came out at 0.151 s⁻¹ and the specificity constant (kcat/Km) is 104 M⁻¹ s⁻¹. Besides, in data set [4], the Km was determined as 6.83 ± 0.32 mM, the Vmax was determined as 212 µM/min, the kcat was found to be 0.23 ± 0.00367 s⁻¹ and the specificity constant (kcat/Km) amounted to 34.8 ± 1 M⁻¹ s⁻¹.

B2: Streptomyces sp. strain TH1 L-proline-3-hydroxylase (cis-P3H), wild type (WT), SEQ ID NO. 1 (Streptomyces sp.) (protein)
chain: MRSHILGRIELDQERLGRDLEYLATVPTVEEEYDEFSNGFWKNIPLYNASGGSEDRLYRDLEGSPAQPTKHAEQVPYLNEIITTVYNGERLQMARTRNLKNAVVIPHRDFVELDRELDQYFRTHLMLEDSPLAFHSDDDTVIHMRAGEIWFLDAAAVHSAVNFAEFSRQSLCVDLAFDGAFDEKEAFADATVYAPNLSPDVRERKPFTKEREAGILALSGVIGRENFRDILFLLSKVHYTYDVHPGETFEWLVSVSKGAGDDKMVEKAERIRDFAIGARALGERFSLTTW
For B2, in data set [3] (other: WT pure enzyme), the Michaelis constant (Km) was 0.76 ± 0.02 mM, the Vmax came out at 101 µM/min, the kcat was 0.102 s⁻¹ and the kcat/Km amounted to 134 M⁻¹ s⁻¹. Besides, in data set [5], the Km amounted to 10.27 ± 0.40 mM, the Vmax is 201 µM/min, the kcat stood at 0.2038 ± 0.002 s⁻¹ and the kcat/Km was 19 ± 0.5 M⁻¹ s⁻¹.
